B1: library; numbered along this chain (parent)
chain: MATDAALRRLLRLHRTEIAVAVDSAFPLLHALADHDVVPEDKFQETLHLKEKEGCPQAFHALLSWLLTQDSTAILDFWRVLFKDYNLERYGRLQPILDSFPKDVDLSQPRKGRKPPAVPKALVPPPRLPTKRKASEEARAAAPAALTPRGTASPGSQLKAKPPKKPESSAEQQRLPLGNGIQTMSASVQRAVAMSSGDVPGARGAVEGILIQQVFESGGSKKCIQVGGEFYTPSKFEDSGSGKNKARSSSGPKPLVRAKGAQGAAPGGGEARLGQQGSVPAPLALPSDPQLHQKNEDECAVCRDGGELICCDGCPRAFHLACLSPPLREIPSGTWRCSSCLQATVQEVQPRAEEPRPQEPPVETPLPPGLRSAGEEVRGPPGEPLAGMDTTLVYKHLPAPPSAAPLPGLDSSALHPLLCVGPEGQQNLAPGARCGVCGDGTDVLRCTHCAAAFHWRCHFPAGTSRPGTGLRCRSCSGDVTPAPVEGVLAPSPARLAPGPAKDDTASHEPALHRDDLESLLSEHTFDGILQWAIQSMARPAAPFPS

Variants of: B1
Test: AIRE transcriptional activation functional score (insulin promoter-GFP; nonsense median 0, synonymous median 1) (normalised score); higher = higher AIRE activity (more reporter activation)
Conditions: with insulin promoter-GFP reporter in HEK293
Experimental: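 Deep mutational scan of full-length human AIRE (codon-optimized cDNA, DT-POPCode NNN libraries over three regions) integrated at a Bxb1 landing pad in HEK293 cells carrying an insulin core promoter-GFP reporter at a Flp-In site. Cells were sorted for the top 10% GFP about 14 days after transfection. Variant frequency log-ratios (select vs non-select, TileSeq) were rescaled so that the nonsense median is 0 and the synonymous median is 1, then averaged over biological replicates.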

AIRE transcriptional activation functional score, by site and new letter:
F82: N -4.23 | M -1.23 | L 0.0208 | I 0.234 | V 0.0231 | Y 0.443 | H 0.0485 | K -0.492 | S 0.375 | A -0.904 | G 0.401 | T -0.086 | D 0.364 | C -0.279 | W -0.557 | P -0.365 | R 0.341 | Q 0.378
D84: S 1.11 | I -0.4 | R 0.794 | H 0.341 | F -0.14 | V -0.00793 | K -0.063 | G 0.841 | P 0.652 | Q 0.343 | L -0.0937 | C -0.0537 | W 1.68 | A 0.125 | M -0.309 | N 0.535 | T 0.74 | Y 0.473 | E 0.774
Y85: R -0.639 | D 0.0634 | I 0.794 | N -0.66 | L 0.211 | S 0.113 | P -0.276 | K -1.13 | G -1.95 | E -2.83 | F 0.722 | V 0.302 | H -0.286 | C 0.367 | Q -2.11 | T 0.418 | W -1.85
N86: T -0.124 | V 1.33 | C 0.345 | E -0.323 | P 0.153 | A -0.248 | I 0.0139 | R -0.161 | K -0.0593 | S 0.134 | M 1.34 | Q -0.241 | G -0.0879 | L 0.306 | F -0.398 | W -0.448 | Y 0.0334 | H -0.275 | D -1.05
L87: A 0.0518 | C 0.115
L81: E 0.209 | H -1.4 | K -1.81 | I 0.143 | W 0.0861 | S 0.123 | D 0.439 | C 0.822

Source: the supplement of paper PMC12667976
